Source: paper PMC10397247
Each block holds one binder with its values, some of them ahead of it.

What was measured:
[1] = biological target: T1, 4H4038-bA; test: two-hybrid library CCNG1;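 also: natural log of median RNA to DNA barcode read ratio; higher means stronger binding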
T1 chain: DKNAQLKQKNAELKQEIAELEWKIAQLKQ

[2] = biological target: T2, 4H3926-bH; test: two-hybrid library CCNG1;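 also: natural log of median RNA to DNA barcode read ratio; higher means stronger binding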
T2 chain: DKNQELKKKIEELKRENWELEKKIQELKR

[3] = biological target: T3, 4H3427-bH; test: two-hybrid library CCNG1;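 also: natural log of median RNA to DNA barcode read ratio; higher means stronger binding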
T3 chain: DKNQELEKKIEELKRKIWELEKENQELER

[4] = biological target: T4, 4H855-bH; test: two-hybrid library CCNG1;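 also: natural log of median RNA to DNA barcode read ratio; higher means stronger binding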
T4 chain: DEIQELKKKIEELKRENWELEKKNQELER

[5] = biological target: T5, 4H2627-bH; test: two-hybrid library CCNG1;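 also: natural log of median RNA to DNA barcode read ratio; higher means stronger binding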
T5 chain: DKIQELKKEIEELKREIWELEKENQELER

[6] = biological target: T6, 4H3010-bH; test: two-hybrid library CCNG1;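 also: natural log of median RNA to DNA barcode read ratio; higher means stronger binding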
T6 chain: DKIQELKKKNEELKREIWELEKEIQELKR

[7] = biological target: T7, 4H575-bH; test: two-hybrid library CCNG1
T7 chain: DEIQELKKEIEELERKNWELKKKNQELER

[8] = biological target: T8, 4H683-bH; test: two-hybrid library CCNG1
T8 chain: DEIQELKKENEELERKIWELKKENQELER

[9] = biological target: T9, 4H457-bH; test: two-hybrid library CCNG1
T9 chain: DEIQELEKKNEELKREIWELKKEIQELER

[10] = biological target: T10, 4H3112-bH; test: two-hybrid library CCNG1
T10 chain: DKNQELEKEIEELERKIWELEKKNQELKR

[11] = biological target: T11, 4H754-bH; test: two-hybrid library CCNG1
T11 chain: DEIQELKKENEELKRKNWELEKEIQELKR

[12] = biological target: T12, 4H918-bH; test: two-hybrid library CCNG1
T12 chain: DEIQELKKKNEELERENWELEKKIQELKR

[13] = biological target: T13, 4H346-bH; test: two-hybrid library CCNG1
T13 chain: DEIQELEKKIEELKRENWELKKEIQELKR

[14] = biological target: T14, 4H780-bH; test: two-hybrid library CCNG1
T14 chain: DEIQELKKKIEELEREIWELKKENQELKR

[15] = biological target: T15, 4H953-bH; test: two-hybrid library CCNG1
T15 chain: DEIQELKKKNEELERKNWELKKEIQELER

[16] = biological target: T16, 4H2673-bH; test: two-hybrid library CCNG1
T16 chain: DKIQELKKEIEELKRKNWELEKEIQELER

[17] = biological target: T17, 4H968-bH; test: two-hybrid library CCNG1
T17 chain: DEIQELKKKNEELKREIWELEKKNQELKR

[18] = biological target: T18, 4H4073-bH; test: two-hybrid library CCNG1
T18 chain: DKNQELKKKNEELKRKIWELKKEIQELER

[19] = biological target: T19, 4H2702-bH; test: two-hybrid library CCNG1
T19 chain: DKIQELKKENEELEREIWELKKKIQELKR

[20] = biological target: T20, 4H797-bH; test: two-hybrid library CCNG1
T20 chain: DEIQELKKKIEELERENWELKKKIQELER

[21] = biological target: T21, 4H3628-bN; test: two-hybrid library CCNG1
T21 chain: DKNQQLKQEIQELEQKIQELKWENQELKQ

[22] = biological target: T22, 4H591-bN; test: two-hybrid library CCNG1
T22 chain: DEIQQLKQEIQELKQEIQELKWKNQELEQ

[23] = biological target: T23, 4H3817-bN; test: two-hybrid library CCNG1
T23 chain: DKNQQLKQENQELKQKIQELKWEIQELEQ

[24] = biological target: T24, 4H584-bN; test: two-hybrid library CCNG1
T24 chain: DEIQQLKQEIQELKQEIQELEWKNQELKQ

[25] = biological target: T25, 4H3858-bN; test: two-hybrid library CCNG1
T25 chain: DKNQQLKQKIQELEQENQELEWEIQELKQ

[26] = biological target: T26, 4H619-bN; test: two-hybrid library CCNG1
T26 chain: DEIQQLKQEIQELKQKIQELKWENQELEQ

[27] = biological target: T27, 4H3613-bN; test: two-hybrid library CCNG1
T27 chain: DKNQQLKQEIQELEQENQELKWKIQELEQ

[28] = biological target: T28, 4H906-bN; test: two-hybrid library CCNG1
T28 chain: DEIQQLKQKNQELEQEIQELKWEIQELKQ

[29] = biological target: T29, 4H3926-bN; test: two-hybrid library CCNG1
T29 chain: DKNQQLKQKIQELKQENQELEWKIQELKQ

[30] = biological target: T30, 4H3974-bN; test: two-hybrid library CCNG1
T30 chain: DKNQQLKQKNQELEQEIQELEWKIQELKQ

[31] = biological target: T31, 4H3172-bN; test: two-hybrid library CCNG1
T31 chain: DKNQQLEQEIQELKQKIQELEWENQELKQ

[32] = biological target: T32, 4H3162-bN; test: two-hybrid library CCNG1
T32 chain: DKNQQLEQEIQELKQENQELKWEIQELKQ

[33] = biological target: T33, 4H3497-bN; test: two-hybrid library CCNG1
T33 chain: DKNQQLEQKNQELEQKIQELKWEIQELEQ

[34] = biological target: T34, 4H1985-bN; test: two-hybrid library CCNG1
T34 chain: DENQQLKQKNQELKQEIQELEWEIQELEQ

[35] = biological target: T35, 4H570-bN; test: two-hybrid library CCNG1
T35 chain: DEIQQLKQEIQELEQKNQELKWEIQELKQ

[36] = biological target: T36, 4H3414-bN; test: two-hybrid library CCNG1
T36 chain: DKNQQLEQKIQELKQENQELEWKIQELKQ

[37] = biological target: T37, 4H3638-bN; test: two-hybrid library CCNG1
T37 chain: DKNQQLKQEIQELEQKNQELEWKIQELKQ

[38] = biological target: T38, 4H626-bN; test: two-hybrid library CCNG1
T38 chain: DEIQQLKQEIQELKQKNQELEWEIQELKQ

[39] = biological target: T39, 4H3462-bN; test: two-hybrid library CCNG1
T39 chain: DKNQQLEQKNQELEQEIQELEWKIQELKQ

[40] = biological target: T40, 4H3631-bN; test: two-hybrid library CCNG1
T40 chain: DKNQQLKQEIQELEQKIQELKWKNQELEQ

[41] = biological target: T41, 4H3277-bN; test: two-hybrid library CCNG1
T41 chain: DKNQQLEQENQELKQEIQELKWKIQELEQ

[42] = biological target: T42, 4H3129-bN; test: two-hybrid library CCNG1
T42 chain: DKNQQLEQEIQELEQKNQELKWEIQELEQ

[43] = biological target: T43, 4H850-bN; test: two-hybrid library CCNG1
T43 chain: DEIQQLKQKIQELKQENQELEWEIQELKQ

[44] = biological target: T44, 4H3298-bN; test: two-hybrid library CCNG1
T44 chain: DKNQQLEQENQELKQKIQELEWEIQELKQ

[45] = biological target: T45, 4H3175-bN; test: two-hybrid library CCNG1
T45 chain: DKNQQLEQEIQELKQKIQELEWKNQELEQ

[46] = biological target: T46, Q8-AA; test: two-hybrid library CCmax
T46 chain: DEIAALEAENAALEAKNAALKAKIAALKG

[47] = biological target: T47, O8-bN; test: two-hybrid library CCNG1
T47 chain: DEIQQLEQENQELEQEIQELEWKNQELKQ

[48] = biological target: T48, 4H717-bH; test: two-hybrid library CCNG1
T48 chain: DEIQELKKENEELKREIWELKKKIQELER

[49] = biological target: T49, 4H1899-bN; test: two-hybrid library CCNG1
T49 chain: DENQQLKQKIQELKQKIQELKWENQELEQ

[50] = biological target: T50, 4H953-bA; test: two-hybrid library CCNG1
T50 chain: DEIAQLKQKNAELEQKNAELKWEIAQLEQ

[51] = biological target: T51, 4H2697-bN; test: two-hybrid library CCNG1
T51 chain: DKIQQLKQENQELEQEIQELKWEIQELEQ

[52] = biological target: T52, 4H607-bA; test: two-hybrid library CCNG1
T52 chain: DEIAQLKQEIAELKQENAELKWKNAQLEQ

[53] = biological target: T53, 4H470-bA; test: two-hybrid library CCNG1
T53 chain: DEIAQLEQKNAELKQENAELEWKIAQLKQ

[54] = biological target: T54, 4H3907-bA; test: two-hybrid library CCNG1
T54 chain: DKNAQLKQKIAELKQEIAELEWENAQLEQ

[55] = biological target: T55, 4H3961-bA; test: two-hybrid library CCNG1
T55 chain: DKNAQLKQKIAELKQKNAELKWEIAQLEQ

Binder: DKIQELKKEIEELKREIWELEKENQELER [4H2627-bH]
interaction score [2]: -0.251
interaction score [3]: 1.18
interaction score [4]: -0.425
interaction score [5]: 1.3
interaction score [6]: 0.547
interaction score [7]: -0.0013
interaction score [8]: 0.431
interaction score [9]: -1.91
interaction score [10]: -0.225
interaction score [11]: -1.94
interaction score [12]: -0.493
interaction score [13]: -0.309
interaction score [14]: -0.424
interaction score [15]: -1.4
interaction score [16]: 0.273
interaction score [17]: 0.133
interaction score [18]: 1.38
interaction score [19]: 0.512
interaction score [20]: -0.67

Binder: DENQQLKQKNQELKQEIQELEWEIQELEQ [4H1985-bN]
interaction score [21]: -1.17
interaction score [22]: -0.871
interaction score [23]: -0.872
interaction score [24]: -1.72
interaction score [25]: -0.987
interaction score [26]: -1.93
interaction score [27]: -1.86
interaction score [28]: -1.03
interaction score [29]: -1.25
interaction score [30]: -1.17
interaction score [31]: -0.909
interaction score [32]: -1.41
interaction score [33]: -1.28
interaction score [34]: -2.05
interaction score [35]: -1.42
interaction score [36]: -1.17
interaction score [37]: -1.17
interaction score [38]: -0.889
interaction score [39]: -1.4
interaction score [40]: -1.53
interaction score [41]: -1.75
interaction score [42]: -2.06
interaction score [43]: -1.6
interaction score [44]: -0.626
interaction score [45]: -2.05

Binder: DKNQQLEQEIQELKQENQELKWEIQELKQ [4H3162-bN]
interaction score [21]: -0.668
interaction score [22]: -1.33
interaction score [27]: -1.7
interaction score [28]: -0.289
interaction score [29]: 0.163
interaction score [32]: 0.979
interaction score [33]: -0.903
interaction score [47]: -3.16
interaction score [38]: -1.41
interaction score [39]: 0.241
interaction score [41]: -0.514
interaction score [44]: -0.102
interaction score [45]: -0.427

Binder: DENQQLKQKIQELKQKIQELKWENQELEQ [4H1899-bN]
interaction score [21]: 0.469
interaction score [22]: -1.42
interaction score [23]: -0.969
interaction score [25]: -0.633
interaction score [48]: -0.282
interaction score [27]: 0.0619
interaction score [28]: -0.654
interaction score [29]: -0.429
interaction score [30]: -0.336
interaction score [32]: -0.75
interaction score [33]: -0.658
interaction score [34]: -0.785
interaction score [35]: -1
interaction score [49]: -1.24
interaction score [38]: -0.642
interaction score [39]: -2.27
interaction score [41]: -1.21
interaction score [50]: -1.81
interaction score [43]: -1.55
interaction score [51]: -1.18
interaction score [44]: -0.744
interaction score [45]: -0.0673

Further lines, results first:

interaction score [1]: -0.541
Binder: DKNAQLKQKNAELKQEIAELEWKIAQLKQ [4H4038-bA]

interaction score [46]: -1.19
Binder: DEIAALEAENAALEAKNAALKAKIAALKG [Q8-AA]

interaction score [1]: -0.611
interaction score [52]: -0.806
interaction score [53]: -1.37
interaction score [54]: 0.8
interaction score [55]: -1.16
Binder: DKNAQLKQKIAELKQEIAELEWENAQLEQ [4H3907-bA]
